In patent publication US20130337438A1 (JAPAN HEALTH SCIENCES FOUNDATION, published 2013):

Key:
[1] = target: T1, HPV16 L1/L2-capsid (human papillomavirus type 16, UniProt P03107 1-473; P03101 1-505); test: hybridoma screening ELISA on HPV16 L1/L2-capsid
T1 construct: Capsid of co-expressed L1 and L2; It was made in 293FT cells (Test Method 2) or in Sf9 insect cells with baculovirus (Test Method 3); The pseudovirus of Test Method 1 is the same capsid carrying a SEAP plasmid; also called L1/L2-capsid of type 16; HPV16 pseudovirus (PsV)
T1 sequence 1: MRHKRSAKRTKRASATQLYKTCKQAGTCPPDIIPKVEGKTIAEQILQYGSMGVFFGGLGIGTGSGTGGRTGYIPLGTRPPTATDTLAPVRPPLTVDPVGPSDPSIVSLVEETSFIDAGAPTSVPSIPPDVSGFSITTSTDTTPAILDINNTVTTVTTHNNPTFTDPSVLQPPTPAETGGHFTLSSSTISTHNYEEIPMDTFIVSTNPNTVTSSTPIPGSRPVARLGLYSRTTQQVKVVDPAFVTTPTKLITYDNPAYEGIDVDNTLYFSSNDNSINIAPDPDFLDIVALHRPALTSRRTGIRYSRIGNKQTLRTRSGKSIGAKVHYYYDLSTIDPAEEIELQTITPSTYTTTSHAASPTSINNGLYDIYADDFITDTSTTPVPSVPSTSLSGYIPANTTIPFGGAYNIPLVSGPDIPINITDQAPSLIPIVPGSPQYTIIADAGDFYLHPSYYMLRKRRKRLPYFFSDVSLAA
T1 sequence 2: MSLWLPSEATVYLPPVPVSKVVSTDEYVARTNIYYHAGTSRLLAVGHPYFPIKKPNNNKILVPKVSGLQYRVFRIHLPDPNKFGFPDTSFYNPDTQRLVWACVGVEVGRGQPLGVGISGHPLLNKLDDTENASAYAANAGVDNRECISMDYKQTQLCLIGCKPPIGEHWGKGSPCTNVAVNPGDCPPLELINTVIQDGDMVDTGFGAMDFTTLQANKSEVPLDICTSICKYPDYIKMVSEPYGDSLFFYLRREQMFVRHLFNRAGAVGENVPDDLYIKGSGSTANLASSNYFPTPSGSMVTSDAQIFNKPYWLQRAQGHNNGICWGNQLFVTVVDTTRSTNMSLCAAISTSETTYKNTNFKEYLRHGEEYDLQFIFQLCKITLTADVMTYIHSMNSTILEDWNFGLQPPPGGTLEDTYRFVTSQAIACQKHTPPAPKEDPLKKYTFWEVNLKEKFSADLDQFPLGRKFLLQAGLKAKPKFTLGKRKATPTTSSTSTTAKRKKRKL

[2] = target: T2, HPV31 L1/L2-capsid (human papillomavirus type 31, UniProt P17389 1-466; P17388 1-504); test: ELISA on immobilized L1/L2-capsid, purified antibody 250 ng/well
T2 construct: Capsid of co-expressed L1 and L2 from 293FT cells; The pseudovirus is the same capsid with a reporter plasmid; also called L1/L2-capsid of type 31; HPV31 pseudovirus
T2 sequence 1: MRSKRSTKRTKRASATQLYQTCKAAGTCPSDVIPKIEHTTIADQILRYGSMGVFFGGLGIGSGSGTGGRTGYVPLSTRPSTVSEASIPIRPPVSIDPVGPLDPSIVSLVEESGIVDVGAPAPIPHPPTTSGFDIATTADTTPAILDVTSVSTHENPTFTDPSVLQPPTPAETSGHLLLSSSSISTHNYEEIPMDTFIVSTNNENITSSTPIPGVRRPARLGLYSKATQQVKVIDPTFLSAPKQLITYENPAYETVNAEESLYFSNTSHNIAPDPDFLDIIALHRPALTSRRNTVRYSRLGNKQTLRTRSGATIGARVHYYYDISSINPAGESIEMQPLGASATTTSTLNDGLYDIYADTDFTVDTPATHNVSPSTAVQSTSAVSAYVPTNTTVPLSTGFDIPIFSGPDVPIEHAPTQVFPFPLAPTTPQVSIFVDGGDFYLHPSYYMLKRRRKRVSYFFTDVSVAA
T2 sequence 2: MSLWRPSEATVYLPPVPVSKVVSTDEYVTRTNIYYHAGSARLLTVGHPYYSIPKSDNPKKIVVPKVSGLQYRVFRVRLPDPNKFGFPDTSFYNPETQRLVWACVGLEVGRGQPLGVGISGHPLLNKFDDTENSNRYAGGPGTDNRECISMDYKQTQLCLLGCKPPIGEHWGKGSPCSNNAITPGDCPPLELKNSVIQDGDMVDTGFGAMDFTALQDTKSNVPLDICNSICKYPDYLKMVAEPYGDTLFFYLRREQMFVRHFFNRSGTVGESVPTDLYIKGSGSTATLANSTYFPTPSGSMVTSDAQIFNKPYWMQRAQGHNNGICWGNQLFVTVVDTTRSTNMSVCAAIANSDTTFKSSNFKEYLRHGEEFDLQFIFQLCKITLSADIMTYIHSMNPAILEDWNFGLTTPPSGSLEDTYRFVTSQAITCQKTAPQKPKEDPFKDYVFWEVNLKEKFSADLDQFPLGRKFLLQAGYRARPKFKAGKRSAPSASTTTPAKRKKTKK

[3] = target: T3, P56/75 (amino acids 56-75 of HPV16 L2 protein) (human papillomavirus type 16, conjugated with keyhole limpet hemocyanin (KLH) via cysteine); test: affinity purification on KLH-P56/75 sepharose
T3 construct: Synthetic peptide; It was conjugated with KLH via an added cysteine (KLH-P56/75); also called KLH-P56/75; L2 peptide (56-75)
T3 peptide: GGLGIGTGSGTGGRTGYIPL

Measured: binding result

B1: monoclonal antibody 13B (antibody, V domains shown)
VH: DVQLQESGPGLVKPSQSLSLSCTVTGYSITSDSAWNWIRQFPGNKLEWMGYITFSGSTNYNPSLKSRLSITRDTSKNQFFLQLNSVTTEDTATYYCTGPFLDYWGQGTTLTVSS
VL: DVVMTQTPLSLPVSLGDQATISCRSSLSLVLSNRITYLQWYLQKPGQSPKLLIYKVSNRFSGVPDRFSGSGSGTDFTLKISRVEAEDLGVYFCSQSSHFPWTFGGGTKLEIKR
notes: Used as mouse ascites or as antibody purified from ascites; also called Mouse-Mouse hybridoma 13B (FERM BP-11304)
binds: [1] | [2] | [3]

B2: monoclonal antibody 24B (antibody, V domains shown)
VH: EVQLQQSGTVLARPGASVKMSCKASVYSFPSNWMHWVKQRPGQGLEWIGAIYPGTGATRYNQKFKDKAKLTAVTSADTAYMELSSLTDEDSAVYYCTGYSLYWGQGTILTVSS
VL: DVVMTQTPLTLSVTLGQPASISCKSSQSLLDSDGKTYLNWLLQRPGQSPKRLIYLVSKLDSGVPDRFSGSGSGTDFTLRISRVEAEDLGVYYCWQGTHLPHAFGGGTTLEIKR
notes: Used as mouse ascites or as antibody purified from ascites; also called Mouse-Mouse hybridoma 24B (FERM BP-11305)
binds: [1] | [2] | [3]
